Test results published in article PMC8995355 (Molecular cell, 2022).
One block for each molecule: values may come before it. Square brackets hold non-standard residues; d marks the D form. Ends that are not written are not given here. pS = N[C@@H](COP(=O)(O)O)C(=O)O

Experiments:
[1] = target: RIF1 (UniProt Q5UIP0); assay: biotin-peptide streptavidin pull-down, RIF1 blot
[2] = target: Cy5-53BP1(166-182) pS176/pS178; pS176/pS178 (S) (human) (UniProt Q12888); assay: fluorescence polarisation
[3] = target: T1, RIF1(1-980), recombinant N-terminal fragment with the HEAT repeat-rich NTD (human, UniProt Q5UIP0 1-980); assay: fluorescence polarisation
T1 sequence (looked up): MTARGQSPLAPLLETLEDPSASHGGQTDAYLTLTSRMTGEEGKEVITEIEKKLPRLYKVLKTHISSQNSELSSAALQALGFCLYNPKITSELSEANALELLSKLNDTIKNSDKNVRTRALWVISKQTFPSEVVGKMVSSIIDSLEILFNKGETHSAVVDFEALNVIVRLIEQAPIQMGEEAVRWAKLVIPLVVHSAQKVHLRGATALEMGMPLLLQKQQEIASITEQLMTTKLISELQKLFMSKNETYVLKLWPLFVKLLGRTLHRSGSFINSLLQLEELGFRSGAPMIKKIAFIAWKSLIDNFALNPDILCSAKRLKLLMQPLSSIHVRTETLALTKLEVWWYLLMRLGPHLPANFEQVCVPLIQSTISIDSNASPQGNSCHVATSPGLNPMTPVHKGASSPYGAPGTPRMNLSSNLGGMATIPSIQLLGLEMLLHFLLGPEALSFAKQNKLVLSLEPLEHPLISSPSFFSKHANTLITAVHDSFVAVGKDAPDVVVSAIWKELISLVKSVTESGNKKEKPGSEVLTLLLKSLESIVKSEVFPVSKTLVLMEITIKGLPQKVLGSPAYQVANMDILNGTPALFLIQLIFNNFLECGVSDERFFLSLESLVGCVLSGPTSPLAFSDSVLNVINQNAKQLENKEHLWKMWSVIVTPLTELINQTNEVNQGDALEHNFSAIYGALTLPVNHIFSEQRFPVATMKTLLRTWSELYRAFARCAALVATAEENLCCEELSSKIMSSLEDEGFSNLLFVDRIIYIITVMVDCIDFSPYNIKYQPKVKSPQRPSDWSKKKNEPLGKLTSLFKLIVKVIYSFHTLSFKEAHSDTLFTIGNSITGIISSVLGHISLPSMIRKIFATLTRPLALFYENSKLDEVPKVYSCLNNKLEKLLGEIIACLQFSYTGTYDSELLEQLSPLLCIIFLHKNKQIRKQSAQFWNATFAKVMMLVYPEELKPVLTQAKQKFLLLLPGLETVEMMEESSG

binding against the reference ([1]; reference: unphosphorylated peptide (S518/S520), sites S518,S520): stronger
Molecule: 53BP1 511-527 (from UniProt Q12888) pS518/pS520 peptide

binding against the reference ([1]; reference: unphosphorylated peptide (T696/S698), sites T696,S698): stronger
Molecule: 53BP1 686-702 (from UniProt Q12888) pT696/pS698 peptide

Kd [2]: 2000 nM
Molecule: RIF1(1-980), recombinant N-terminal fragment with the HEAT repeat-rich NTD (from UniProt Q5UIP0 1-980) (domain or fragment)

binding result [3]: binds
B1: Cy5-53BP1(166-182) pS176/pS178 E174A; pS176/pS178 (S) E174A (peptide, UniProt Q12888 166-182, looked up)
peptide: Cy5-SQLGFGVLAL[pS]Q[pS]QDVE

binding result [3]: binds
B2: Cy5-53BP1(166-182) S176E/pS178; S176E/pS178 (S) (peptide, UniProt Q12888 166-182, looked up)
peptide: Cy5-SQLGFGVLELEQ[pS]QDVE
